Laboratory results from patent publication US20060257938A1, “Method of screening for drugs that block ligand binding to a lipid binding protein” (priority 2005, published 2006).
Several values for one entry are separate records, joined by “and”; a condition that tells them apart may be missing. Equal values may be shown once.

Tests used:
Type in all cases: binding
[1] = Probe fluorescence ratio response to arachidonic acid relative to ADIFAB2; conditions: arachidonic acid; response relative to ADIFAB2
Outline: (§1)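 Each fatty acid's response was expressed relative to ADIFAB2, the rI-FABP-L72A probe, as ΔR/ΔRreference. ΔR is the change in the background-corrected two-wavelength intensity ratio R=Fλ1/Fλ2 from its analyte-free baseline R0. Emission was read near about 420-480 nm for unbound and about 495-580 nm for FFA-bound probe.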

[2] = Probe fluorescence ratio response to linolenic acid relative to ADIFAB2; conditions: response relative to ADIFAB2
Outline: as §1

[3] = Probe fluorescence ratio response to oleic acid relative to ADIFAB2; conditions: response relative to ADIFAB2
Outline: as §1

[4] = Probe fluorescence ratio response to palmitic acid relative to ADIFAB2; conditions: response relative to ADIFAB2
Outline: as §1

[5] = Probe fluorescence ratio response to linoleic acid relative to ADIFAB2; conditions: response relative to ADIFAB2
Outline: as §1

Row | Molecule | DR/DR AA [1] | DR/DR LNA [2] | DR/DR OA [3] | DR/DR PA [4] | DR/DR LA [5]
1 | 31N2, 72A (protein, listed as Rattus norvegicus, PEPTIDE (1)...(131) wild-type rat intestinal fatty acid binding protein) AFDGTWKVDRNENYEKFMEKMGINVVKRKLNAHDNLKLTITQEGNKFTVKESSNFRNIDVVFELGVDFAYSAADGTELTGTWTMEGNKLVGKFKRVDNGKELIAVREISGNELIQTYTYEGVEAKRIFKKE | 0.88 | 1.06 | 0.91 | 0.50 | 1.04
2 | 31Y2, 72A (protein, listed as Rattus norvegicus, PEPTIDE (1)...(131) wild-type rat intestinal fatty acid binding protein) AFDGTWKVDRNENYEKFMEKMGINVVKRKLYAHDNLKLTITQEGNKFTVKESSNFRNIDVVFELGVDFAYSAADGTELTGTWTMEGNKLVGKFKRVDNGKELIAVREISGNELIQTYTYEGVEAKRIFKKE | 0.37 | 0.80 | 0.01 | 0.17 | 0.36
3 | 34P, 72A (protein, listed as Rattus norvegicus, PEPTIDE (1)...(131) wild-type rat intestinal fatty acid binding protein) AFDGTWKVDRNENYEKFMEKMGINVVKRKLGAHPNLKLTITQEGNKFTVKESSNFRNIDVVFELGVDFAYSAADGTELTGTWTMEGNKLVGKFKRVDNGKELIAVREISGNELIQTYTYEGVEAKRIFKKE | 0.46 | 0.76 | 0.46 | 0.35 | 0.66
4 | 31R1, 72A (protein, listed as Rattus norvegicus, PEPTIDE (1)...(131) wild-type rat intestinal fatty acid binding protein) AFDGTWKVDRNENYEKFMEKMGINVVKRKLRAHDNLKLTITQEGNKFTVKESSNFRNIDVVFELGVDFAYSAADGTELTGTWTMEGNKLVGKFKRVDNGKELIAVREISGNELIQTYTYEGVEAKRIFKKE | 0.25 | 0.44 | 0.23 | 0.34 | 0.40
5 | 34A, 72A (protein, listed as Rattus norvegicus, PEPTIDE (1)...(131) wild-type rat intestinal fatty acid binding protein) AFDGTWKVDRNENYEKFMEKMGINVVKRKLGAHANLKLTITQEGNKFTVKESSNFRNIDVVFELGVDFAYSAADGTELTGTWTMEGNKLVGKFKRVDNGKELIAVREISGNELIQTYTYEGVEAKRIFKKE | 0.58 | 0.57 | 0.49 | 0.33 | 0.57
6 | 31Y1, 72A (protein, listed as Rattus norvegicus, PEPTIDE (1)...(131) wild-type rat intestinal fatty acid binding protein) AFDGTWKVDRNENYEKFMEKMGINVVKRKLYAHDNLKLTITQEGNKFTVKESSNFRNIDVVFELGVDFAYSAADGTELTGTWTMEGNKLVGKFKRVDNGKELIAVREISGNELIQTYTYEGVEAKRIFKKE | 1.78 | 1.61 | 1.55 | 1.10 | 1.75
7 | 34C, 72A (protein, listed as Rattus norvegicus, PEPTIDE (1)...(131) wild-type rat intestinal fatty acid binding protein) AFDGTWKVDRNENYEKFMEKMGINVVKRKLGAHCNLKLTITQEGNKFTVKESSNFRNIDVVFELGVDFAYSAADGTELTGTWTMEGNKLVGKFKRVDNGKELIAVREISGNELIQTYTYEGVEAKRIFKKE | 0.34 | 0.33 | 0.30 | 0.18 | 0.59
8 | 31V2, 72A (protein, listed as Rattus norvegicus, PEPTIDE (1)...(131) wild-type rat intestinal fatty acid binding protein) AFDGTWKVDRNENYEKFMEKMGINVVKRKLVAHDNLKLTITQEGNKFTVKESSNFRNIDVVFELGVDFAYSAADGTELTGTWTMEGNKLVGKFKRVDNGKELIAVREISGNELIQTYTYEGVEAKRIFKKE | 0.40 | 0.78 | 0.08 | 0.21 | 0.38
9 | 34G, 72A (protein, listed as Rattus norvegicus, PEPTIDE (1)...(131) wild-type rat intestinal fatty acid binding protein) AFDGTWKVDRNENYEKFMEKMGINVVKRKLGAHGNLKLTITQEGNKFTVKESSNFRNIDVVFELGVDFAYSAADGTELTGTWTMEGNKLVGKFKRVDNGKELIAVREISGNELIQTYTYEGVEAKRIFKKE | 0.54 | 0.29 | 0.13 | 0.18 | 0.33
10 | 34N, 72A (protein, listed as Rattus norvegicus, PEPTIDE (1)...(131) wild-type rat intestinal fatty acid binding protein) AFDGTWKVDRNENYEKFMEKMGINVVKRKLGAHNNLKLTITQEGNKFTVKESSNFRNIDVVFELGVDFAYSAADGTELTGTWTMEGNKLVGKFKRVDNGKELIAVREISGNELIQTYTYEGVEAKRIFKKE | 1.19 | 1.18 | 1.16 | 1.11 | 1.16
11 | 31W2, 72A (protein, listed as Rattus norvegicus, PEPTIDE (1)...(131) wild-type rat intestinal fatty acid binding protein) AFDGTWKVDRNENYEKFMEKMGINVVKRKLWAHDNLKLTITQEGNKFTVKESSNFRNIDVVFELGVDFAYSAADGTELTGTWTMEGNKLVGKFKRVDNGKELIAVREISGNELIQTYTYEGVEAKRIFKKE | 0.99 | 1.03 | 0.87 | 0.62 | 1.15
12 | 34H, 72A (protein, listed as Rattus norvegicus, PEPTIDE (1)...(131) wild-type rat intestinal fatty acid binding protein) AFDGTWKVDRNENYEKFMEKMGINVVKRKLGAHHNLKLTITQEGNKFTVKESSNFRNIDVVFELGVDFAYSAADGTELTGTWTMEGNKLVGKFKRVDNGKELIAVREISGNELIQTYTYEGVEAKRIFKKE | 0.65 | 0.72 | 0.52 | 0.38 | 0.74
13 | 31Q3, 72A (protein, listed as Rattus norvegicus, PEPTIDE (1)...(131) wild-type rat intestinal fatty acid binding protein) AFDGTWKVDRNENYEKFMEKMGINVVKRKLQAHDNLKLTITQEGNKFTVKESSNFRNIDVVFELGVDFAYSAADGTELTGTWTMEGNKLVGKFKRVDNGKELIAVREISGNELIQTYTYEGVEAKRIFKKE | 1.02 | 1.49 | 1.31 | 1.04 | 1.47
14 | 34E, 72A (protein, listed as Rattus norvegicus, PEPTIDE (1)...(131) wild-type rat intestinal fatty acid binding protein) AFDGTWKVDRNENYEKFMEKMGINVVKRKLGAHENLKLTITQEGNKFTVKESSNFRNIDVVFELGVDFAYSAADGTELTGTWTMEGNKLVGKFKRVDNGKELIAVREISGNELIQTYTYEGVEAKRIFKKE | 0.62 and 0.618 | 0.57 and 0.571 | 0.49 and 0.486 | 0.48 and 0.482 | 0.60 and 0.604
15 | 31T2, 72A (protein, listed as Rattus norvegicus, PEPTIDE (1)...(131) wild-type rat intestinal fatty acid binding protein) AFDGTWKVDRNENYEKFMEKMGINVVKRKLTAHDNLKLTITQEGNKFTVKESSNFRNIDVVFELGVDFAYSAADGTELTGTWTMEGNKLVGKFKRVDNGKELIAVREISGNELIQTYTYEGVEAKRIFKKE | 0.65 | 0.91 | 0.53 | 0.41 | 0.75
16 | 31P1, 72A (protein, listed as Rattus norvegicus, PEPTIDE (1)...(131) wild-type rat intestinal fatty acid binding protein) AFDGTWKVDRNENYEKFMEKMGINVVKRKLPAHDNLKLTITQEGNKFTVKESSNFRNIDVVFELGVDFAYSAADGTELTGTWTMEGNKLVGKFKRVDNGKELIAVREISGNELIQTYTYEGVEAKRIFKKE | 0.25 | 0.27 | 0.22 | 0.23 | 0.30
17 | 34K, 72A (protein, listed as Rattus norvegicus, PEPTIDE (1)...(131) wild-type rat intestinal fatty acid binding protein) AFDGTWKVDRNENYEKFMEKMGINVVKRKLGAHKNLKLTITQEGNKFTVKESSNFRNIDVVFELGVDFAYSAADGTELTGTWTMEGNKLVGKFKRVDNGKELIAVREISGNELIQTYTYEGVEAKRIFKKE | 0.43 | 1.33 | 0.41 | 0.26 | 0.61
